The source of these data is publication PMC6251626.

This assay concerns the target αβ-tubulin heterodimer purified from porcine brains (porcine) (UniProt P02550). The assay can be described thus: ITC; DRP or DRPΔN (135-250 μM) injected into αβ-tubulin (20-40 μM); 25°C, 50 mM HEPES pH 7.3, 100 mM KCl, 1 mM MgCl2, 50 μM GDP. On the technique in general: In ITC the heat of successive injections is recorded.

As to “DRPΔN (DARPin D1 without its N-terminal ankyrin repeat) (designed binder)”, the Kd (usually the concentration at which binding is half-saturated) turned out to be 461 nM.
